Measurements reported in the supplement of paper PMC7877785.
± gives the uncertainty stated by the source.

Experiment: self-splicing fitness, log relative to wild type (ln ratio); higher = more splicing; Tetrahymena group I intron in knt gene, E. coli kanamycin selection, DiMSum; sequences stand for … in CUCUCU…GGAGGGAAAAGUUAUCAGGCAUGCACCUGGUAGCUAGUCUUUAAACCAAUAGAUUGCAUCGGUUUAAAAGGCAAGACCGUCAAAUUGCGGGAAAGGGGUCAACAGCCGUUCAGUACCAAGUCUCAGGGGAAACUUUGAGAUGGCCUUGCAAAGGGUAUGGUAAUAAGCUGACGGACAUGGUCCUAACCACGCAGCCAAGUCCUAAGUCAACAGAUCUUCUGUUGAUAUGGAUGCAGUUCACAGACUAAAUGUCGGUCGGGGAAGAUGUAUUCUUCUCAUAAGAUAUAGUCGGACCUCUCCUUAAUGGGAGCUAGCGGAUGAAGUGAUGCAACACUGGAGCCGCUGGGAACUAAUUUGUAUGCGAAAGUAUAUUGAUUAGUUUUGGAGUACUCGUGGUCG
How it was run: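 DiMSum derived fitness as the error-weighted combination of fold changes across replicates, kanamycin versus no kanamycin, normalised to wild type. E. coli BL21(DE3) held the library, which randomised all eight P1ex-region intron nucleotides within the knt kanamycin-resistance gene on pET-22b(+). Six replicate transformations grew overnight at 37°C or 30°C on LB agar with or without 25 μg/mL kanamycin, also containing 100 μg/mL carbenicillin, 50 μM IPTG and 0.2% rhamnose, and pooled colonies were amplicon-sequenced on an Illumina HiSeq 2500.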

| Sequence | self-splicing fitness (ln) (30 °C) | self-splicing fitness (ln) (37 °C) |
| --- | --- | --- |
| UGCUAGCAAUAUUACGUCCA | -0.211 ± 0.06 | -0.404 ± 0.09 |
| UGCUAGCAAUAUUACGUCCC | -3.34 ± 0.18 | -0.521 ± 0.12 |
| UGCUAGCAAUAUUACGUUAU | -2.22 ± 0.16 | -2.33 ± 0.23 |
| UGCUAGCAAUAUUACGUUUG | -1.48 ± 0.074 | -0.163 ± 0.092 |
| UGGAAGCAAUAUUACGAGAA | -2.05 ± 0.43 | -1.73 ± 0.3 |
| UGGAAGCAAUAUUACGAGCG | 0.103 ± 0.11 | 0.127 ± 0.15 |
| UGGAAGCAAUAUUACGAUAG | -2.51 ± 0.2 | -0.419 ± 0.17 |
| UGGAAGCAAUAUUACGAUUC | -3.18 ± 0.3 | – |
| UGGAAGCAAUAUUACGCAAC | -3.31 ± 0.32 | -2.05 ± 0.27 |
| UGGAAGCAAUAUUACGCUGU | -2.58 ± 0.41 | -2.3 ± 0.49 |
| UGGAAGCAAUAUUACGCUUA | -1.39 ± 0.13 | 0.125 ± 0.15 |
| UGGAAGCAAUAUUACGGAUG | -0.948 ± 0.098 | -0.832 ± 0.12 |
| UGGAAGCAAUAUUACGGCGC | -1.23 ± 0.22 | -0.241 ± 0.22 |
| UGGAAGCAAUAUUACGGGGA | -2.19 ± 0.15 | -2.16 ± 0.16 |
| UGGAAGCAAUAUUACGUACU | -0.516 ± 0.094 | -0.023 ± 0.098 |
| UGGAAGCAAUAUUACGUCCU | -0.91 ± 0.2 | -0.584 ± 0.21 |
| UGGAAGCAAUAUUACGUGGC | -3.41 ± 0.25 | -2.71 ± 0.33 |
| UGGAAGCAAUAUUACGUUGA | -2.36 ± 0.17 | -2.01 ± 0.2 |
| UGGCAGCAAUAUUACGAACA | -0.346 ± 0.11 | 0.139 ± 0.13 |

| Sequence | self-splicing fitness (ln) (30 °C) | self-splicing fitness (ln) (37 °C) |
| --- | --- | --- |
| UGGCAGCAAUAUUACGACAU | -1.746 ± 0.014 | -0.812 ± 0.033 |
| UGGCAGCAAUAUUACGACCG | -0.969 ± 0.27 | -0.245 ± 0.42 |
| UGGCAGCAAUAUUACGACGA | -0.192 ± 0.12 | -0.159 ± 0.14 |
| UGGCAGCAAUAUUACGAGCA | -0.315 ± 0.098 | -0.218 ± 0.12 |
| UGGCAGCAAUAUUACGAGUG | -1.19 ± 0.11 | 0.196 ± 0.12 |
| UGGCAGCAAUAUUACGAUCG | 0.335 ± 0.067 | 1.02 ± 0.1 |
| UGGCAGCAAUAUUACGCACG | -1.22 ± 0.18 | 0.284 ± 0.19 |
| UGGCAGCAAUAUUACGCCUG | -1.24 ± 0.097 | -0.681 ± 0.13 |
| UGGCAGCAAUAUUACGCGGU | -2.54 ± 0.16 | -2.62 ± 0.31 |
| UGGCAGCAAUAUUACGCUGA | -2.79 ± 0.21 | -1.17 ± 0.12 |
| UGGCAGCAAUAUUACGCUUA | -0.68 ± 0.088 | 0.67 ± 0.1 |
| UGGCAGCAAUAUUACGCUUU | -1.24 ± 0.076 | -0.763 ± 0.1 |
| UGGCAGCAAUAUUACGGAGA | -2.9 ± 0.42 | -1.46 ± 0.41 |
| UGGCAGCAAUAUUACGGCAC | -2.27 ± 0.25 | -1.17 ± 0.16 |
| UGGCAGCAAUAUUACGGCAU | -1.18 ± 0.083 | -0.388 ± 0.092 |
| UGGCAGCAAUAUUACGGUAC | -2.66 ± 0.2 | -2.01 ± 0.31 |
| UGGCAGCAAUAUUACGGUCA | -2.12 ± 0.18 | -1.58 ± 0.15 |
| UGGCAGCAAUAUUACGGUCG | -0.881 ± 0.083 | 0.133 ± 0.13 |
